Key:
[1] = system: FseI restriction endonuclease (from pRMFseR1, NEB#918, His at position 2) T2H (Frankia species NRRL 18528); assay: cleavage_in_vitro; conditions: crude extract, NEBuffer 1, 30 C, 1 h; estimated titer
[2] = system: FseI restriction endonuclease (from pRMFseR2, NEB#943, ATCC 69707) (Frankia species NRRL 18528); assay: cleavage_in_vitro; conditions: crude extract; estimated titer; substrate inferred from section 7

Adenovirus-2 DNA
activity (units/g cells) [1]: > 10000 | activity (units/g cells) [2]: > 10000
